Test results taken from the DeepSol protein solubility set.

Assay: soluble on expression in E. coli; label from the status in PepcDB or PDB records

Row | Sequence | soluble on expression in E. coli
1 | MHHHHHHSSGVDLGTENLYFQSMEEHDSPTEASQPIVEEEETKTFKDLGVTDVLCEACDQLGWTKPTKIQIEAIPLALQGRDIIGLAETGSGKTGAFALPILNALLETPQRLFALVLTPTRELAFQISEQFEALGSSIGVQSAVIVGGIDSMSQSLALAKKPHIIIATPGRLIDHLENTKGFNLRALKYLVMDEADRILNMDFETEVDKILKVIPRDRKTFLFSATMTKKVQKLQRAALKNPVKCAVSS | soluble
2 | KKPEGKPDQKFDQKQELGRVIHLSNLPHSGYSDSAVLKLAEPYGKIKNYILMRMKSQAFIEMETREDAMAMVDHCLKKALWFQGRCVKVDLSEKYKKLV | soluble
3 | MGSDKIHHHHHHMEGRINPENWKDIFSDTLYIITDPNGVTAVIPEETAKTASSEPVKAAPADIKPTPVTTATPALPKIPSIPTPASATPNQQPAPVAAATAVLKPAGKYSNGILILMHVSYTMTPAQQEMLGKIVKAVQLDYNECGVLQVSAPVSLKEIETLKPRIVLSFGLPTDAFEPRMTKDLYSIQKHNSTIMLLADSLAKLETTVALKSNLWNAMKEMFGIK | not soluble
4 | GSHMVVELAYTDPDRAVDWLVRVFGFRLLLRQPAIGTIRHADLDTGGGIVMVRRTGEPYTVSCAGGHTCKQVIVWVSDVDEHFMRSTAAGADIVQPLQDKPWGLRQYLVRDLEGHLWEFTRHLRDVPPREWGAVAMT | soluble
5 | MFNHVTVLLKETVDGLDIKPDGTYVDCTLGGGGHSSYLLSQLTEGGRLIAFDQDEIAIQNAKEKFSSYGEQFITVKSNFRYLSEKLQELGITEVDGILFDLGVSSPQLDTPERGFSYHHDAPLDMRMDQDAPLTAYDVVNSWSYEQLVRIFFQYGEEKFSKQIARKIEAYRENKAIETTGELVELIKEGIPAPARRTGGHPAKRVFQAIRIAVNDELKVFEEALESAIEMVKPGGRVSVITFHSLEDRICKTTFKRNSTTPQLPPGLPIIPDEFKPKLKLITRKPILPSDIELEENNRARSAKLRIAEKR | not soluble
6 | MGSDKIHHHHHHMSTILLPKTQHLVVFQEVIRSGSIGSAAKELGLTQPAVSKIINDIEDYFGVELVVRKNTGVTLTPAGQLLLSRSESITREMKNMVNEISGMSSEAVVEVSFGFPSLIGFTFMSGMINKFKEVFPKAQVSMYEAQLSSFLPAIRDGRLDFAIGTLSAEMKLQDLHVEPLFESEFVLVASKSRTCTGTTTLESLKNEQWVLPQTNMGYYSELLTTLQRNGISIENIVKTDSVVTIYNLVLNADFLTVIPCDMTSPFGSNQFITIPVEETLPVAQYAAVWSKNYRIKKAASVLVELAKEYSSYNGCRRRQLIEVG | not soluble
7 | MSLASTFKFLVTSDNHLGYQERDSRRGDDSFTTFEECLRAARLEHEVDAILLAGDFFHDNKPSLGCLARTSSLLRSYVLGDKPISFTLLSDPKRNFPTHPVPLANFQDPNINVALPIFMIHGNHDDPVGGTSSIDILSTAGLVNYFGHTSSLDDIVVEPVLLKKGDTYIALYGLGNVRDDRLHRCFRMKKLHFVQPKTEPGKDWFKILLFHQNRGVRSGGNMKCGIYETMLAGHGMDLVIWGNEHEQQMEPSPSEGFDIIQPGSTILTSLSEHECNPKKYGVLEVRGGSYRVTGFPLRSIRPVVRRTVELWRDNPGCRTLDAVEDFLRSVVEQMIEEAEEQVSRIPDDVLKFHPNIKFPIMRLAVDFTDPDSTTFPQPNINRFGQQYMDIVVNPSELLRPIKPKQVPRVASSASATGGEAPVVPVPRLNTSDIRTKVAEVFNANARDACSLLSESEVSAAVYAFAEKGERDAIDERICELLSKCQKSVWVSMRREGHHHHHH | soluble
8 | DITLSKLAMGGKPTPFGLDESELSNALMLLRDCPQVSLKGFHFHLMSHQLDVERHLALMQRYFQVVKTWQQEFELGELMINLGGGMGINYQNPEQHFPWMEFCDKLEFLIAKEQVQDWTLRFECGRFITAACGYYVMEVLDIKQNLGESYVIARGGTHHFRTPAAQSHDHPFVILKSEQHHEISHPIQHAQATFVGQLCTPKDVLARNQHVAHVDIGDYVVFTLAGAYAWNISHQNFLMHEPPIFHYF | not soluble
9 | VNQQQLQQLMDMGFTREHAMEALLNTSTMEQATEYLLTHP | soluble
10 | MKYKIFASTTPQTEPVLNKLRAVLKTWQAVENGYEYVFVLGGDGFFVSTLANYNCDSCKVVGINTGHIGFYTSFNGDDLDENFISKLTSFEFKKINLLEVKTKNHSFLVLNELAVYTNTAYPINIFIDDNHWESYRGSGLLIGPRTGSTALAKSAKGAVIFPNVDVVQIIELNPLLHPNQITIQSPIILPMQTKVEFRIKKAFKAEQFPNFYADGIKLDLKNEDTSISFQLVLSRSMFHASLKTKDFIDKLKSTFIKQSLEHHHHHH | soluble
11 | MPKNKGKGGKNRRRGKNENDFMKRELDLKEEGQEYGQVSKMLGNGRVQVFCFDGKQRVCHIRGKLRKKVWINVGDIILVGLRDYQDDKGDVILKYTPDEARRLKNEGLIPENAKLNENDEQDEGEVEFLDHVGDEGEAGEAKSDSDSSDSDSEKSDEEAGSDKEEESDDDSEEESDEDSDDSDNIREEDLAAGRGFKEDTRRGGNRGGKNKYGKRR | soluble
12 | MSLTTKDHSLATESPTLQQLGEFAVIDRLVRGRRQPATVLLGPGDDAALVSAGDGRTVVSTDMLVQDSHFRLDWSTPQDVGRKAIAQNAADIEAMGARATAFVVGFGAPAETPAAQASALVDGMWEEAGRIGAGIVGGDLVSCRQWVVSVTAIGDLDGRAPVLRSGAKAGSVLAVVGELGRSAAGYALWCNGIEDFAELRRRHLVPQPPYGHGAAAAAVGAQAMIDVSDGLLADLRHIAEASGVRIDLSAAALAADRDALTAAATALGTDPWPWVLSGGEDHALVACFVGPVPAGWRTIGRVLDGPARVLVDGEEWTGYAGWQSFGEPDNQGSLGEGHHHHHH | soluble
13 | MGSDKIHHHHHHMSNLSLDFSHNEFQPLAARMRPATLAQYIGQQHLLGAGKPLPRAIEAGQLHSMILWGPPGTGKTTLAELIGHYGQADVERISAVTSGIKEIREAIERARQNRNAGRRTILFVDEVHRFNKSQQDAFLPHIEDGTITFIGATTENPSFELNSALLSRARVYLLKALMAEDIEQVLLQAMSDSERGYGGLNIVLPAETGRMLAELVNGDARRALNSLEMMADMAEIDAQGMRILTPALLNEIAGERSARFDNKGDRYYDLISALHKSVRGSAPDAALYWYARIITAGGDPLYVARRLLAIASEDVGNADPRAMQVAISAWDCFTRVGPAEGERAIAQAIVYLACAPKSNAVYSAFKAAMQDAREKPDYDVPEHLCNAPTRLMKEMGLGAEYRYAHNEPNAYAAGESYFPPEMADTHYYAPTSRGLEGKIGEKLAWLATQDQNSPTKRYR | not soluble
14 | MGSDKIHHHHHHMPTIAEKLKSRESDLTRAERQLSAAILDNYPIPGLGSITELAELAEVSTPTVARMVQKLGFSGYPEFQHALREELREIISNPVEKRAEQAPELPEGHMLNRYAVAVYDNIRATLENVNLEEFDTLCALLADTNSRVHIAGGRLSGTLAQNFYLHLQMIRRDVFMIPPRASWTHSVLDLLPGDTLILFDIRRYENATLLLAEMAHERGVKVVLFTDQWRSPIQKEATFTFAARIAVPSAWDSGVALLLLIESMIAKIQEDHWDTVKARNDELEAAFDRTRLFRKFT | not soluble
15 | MQLPPVHSVSLSEYFVSGNVIIHETAVIAPGVILEAAPDCQITIEAGVCIGLGSVISAHAGDVKIQEQTAIAPGCLVIGPVTIGATACLGSRSTVFQQDIDAQVLIPPGSLLMNRVADVQTVGASSPTTDSVTEKKSPSTANPIAPIPSPWDNEPPAKGTDSPSDQAKESIARQSRPSTAEAAEQISSNRSPGESTPTAPTVVTTAPLVSEEVQEKPPVVGQVYINQLLLTLFPERRYFSS | not soluble
16 | MGSDKIHHHHHHMKGQLFVICGPSGAGKTSIIKEVLKRLDNVVFSVSCTTRPKRPHEEDGKDYFFITEEEFLKRVERGEFLEWARVHGHLYGTLRSFVESHINEGKDVVLDIDVQGALSVKKKYSNTVFIYVAPPSYADLRERILKRGTEKEADVLVRLENAKWELMFMDEFDYIVVNENLEDAVEMVVSIVRSERAKVTRNQDKIERFKMEVKGWKKL | not soluble
17 | MQITSNTRLNELWELYFQTLDKSTSWTFTKESFYNRYLKEPLGKKKLDSIQEHHIMAIIRHLQAEGMATRTVNTTLEILRPLFDFAIKNKALRDNPTRFIVLKKDNLEHHHHHH | not soluble
